This is an account of results in publication PMC5727384, “A pH-gated conformational switch regulates the phosphatase activity of bifunctional HisKA-family histidine kinases” (Nature Communications, 2017).

Changes are numbered by the printed parent chain. Numbers in names are those of the source.

T1: HK853^cp-BeF3 ^−-RR468 complex (nucleotide site of HK853^cp) (Thermotoga maritima, UniProt Q9WZV7)
T1 construct: gene TM_0853; HK853 cytoplasmic portion (DHp and CA domains, residues 232-489), with RR468; heterotetramer of two HK853cp and two RR468; expressed in E. coli; with Response regulator
T1 sequence (Q9WZV7 232-489): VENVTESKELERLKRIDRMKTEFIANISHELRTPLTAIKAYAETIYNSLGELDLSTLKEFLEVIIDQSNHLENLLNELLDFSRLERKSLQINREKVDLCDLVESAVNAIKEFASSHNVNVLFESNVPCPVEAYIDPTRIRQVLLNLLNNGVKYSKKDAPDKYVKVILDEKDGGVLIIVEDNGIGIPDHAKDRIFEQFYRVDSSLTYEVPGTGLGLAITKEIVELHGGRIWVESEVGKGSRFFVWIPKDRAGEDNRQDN
T1 sequence (Q9WYT9 1-122 partner): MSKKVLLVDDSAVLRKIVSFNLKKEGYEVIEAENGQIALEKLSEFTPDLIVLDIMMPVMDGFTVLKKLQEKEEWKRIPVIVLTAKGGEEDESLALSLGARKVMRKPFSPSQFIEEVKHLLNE

B1: Cytoplasmic portion of HK853 (HK853^cp), wild type, residues 232–489 (domain or fragment, Thermotoga maritima, UniProt Q9WZV7 232-489, looked up)
chain: T1 sequence (Q9WZV7 232-489)
notes: Histidine kinase HK853, Thermotoga maritima, cytoplasmic portion (DHp and CA domains), residues 232–489; Crystallised with AMPPNP, which was captured as ADP; also called wild-type HK853^cp; source: E. coli BL21(DE3) Gold, purified (ammonium sulfate precipitation, anion-exchange, size-exclusion)
B2: T264A mutant of the cytoplasmic portion of HK853 (T264A HK853^cp) (domain or fragment, Thermotoga maritima, UniProt Q9WZV7 232-489, looked up)
chain: T1 sequence (Q9WZV7 232-489) with T33A
notes: Histidine kinase HK853, Thermotoga maritima, cytoplasmic portion (residues 232–489 as stated for HK853^cp), with T264A; also called HK853^cp T264A mutant
B3: BeF3−-RR468 (BeF3−-conjugated form of the response regulator RR468 from Thermotoga maritima) (natural protein)
chain: T1 sequence (Q9WYT9 1-122 partner)
modifications: BeF3− on D53 (beryllium atom forming a covalent bond with the phosphate-accepting residue D53; phosphoryl analog)
notes: Response regulator RR468, cognate response regulator of HK853, Thermotoga maritima; Generated by adding 5 mM BeCl2 and 50 mM NaF to RR468 (NMR) or 5 mM BeCl2 and 30 mM NaF (crystallisation); Mg2+ in the active site; source: E. coli BL21(DE3) Gold, purified (incubation at 60 °C, anion-exchange, size-exclusion); BeF3− added as BeCl2 and NaF
B4: DHp domain of HK853 (HK853^DHp), wild type, residues 250–315 (domain or fragment, Thermotoga maritima, UniProt Q9WZV7 250-315, looked up)
chain: MKTEFIANISHELRTPLTAIKAYAETIYNSLGELDLSTLKEFLEVIIDQSNHLENLLNELLDFSRL
notes: Histidine kinase HK853, Thermotoga maritima, dimerization and histidine-containing phosphotransfer (DHp) domain, residues 250–315; also called wild-type HK853^DHp; not shown: His6, N-terminal, cleaved; MBP, N-terminal, cleaved
B5: H260A mutant of the DHp domain of HK853 (H260A HK853^DHp), residues 250–315 (domain or fragment, Thermotoga maritima, UniProt Q9WZV7 250-315, looked up)
chain: B4 chain with H11A
notes: Histidine kinase HK853, Thermotoga maritima, DHp domain, residues 250–315, with H260A; not shown: His6, N-terminal, cleaved; MBP, N-terminal, cleaved
B6: T264A mutant of the DHp domain of HK853 (T264A HK853^DHp), residues 250–315 (domain or fragment, Thermotoga maritima, UniProt Q9WZV7 250-315, looked up)
chain: B4 chain with T15A
notes: Histidine kinase HK853, Thermotoga maritima, DHp domain, residues 250–315, with T264A; also called T264A HK853 mutant; not shown: His6, N-terminal, cleaved; MBP, N-terminal, cleaved

The target in series [1] is T1, HK853^cp-BeF3 ^−-RR468 complex (nucleotide site of HK853^cp). The series is described as follows: X-ray crystal structure, […] A. Type of series: binding. To be noted: pH 5.0; Mg2+; crystallised with 4 mM AMPPNP, hydrolysed to ADP; ATP site of HK853 CA domain.
Series [2] has as its target T2, HK853^cp-BeF3 ^−-RR468 complex (active site of RR468) (Thermotoga maritima, UniProt Q9WYT9).
T2 construct: gene TM_0468
The conditions noted are these: pH 5.0; Mg2+; covalent to D53 of RR468.

Series [3] concerns the target T3, HK853^DHp-BeF3 ^−-RR468 complex (Thermotoga maritima, UniProt Q9WYT9).
T3 construct: gene TM_0468
The conditions noted are these: pH 7.0; Mg2+; 298 K; covalent to D53 of RR468; 10-fold excess of HK853 DHp.

A further series deals with T4, RR468 (Thermotoga maritima, UniProt Q9WYT9).
T4 construct: gene TM_0468
The conditions noted are these: pH 7.0; Mg2+; 298 K; covalent Be bond to D53; formed from 5 mM BeCl2 and 50 mM NaF.

Series [4] concerns the molecule itself. Kind of series: crystal structure; HK853^cp (wild type or T264A) with RR468, BeF3− and AMPPNP (captured as ADP), crystallised at pH 5.0 (citric acid, ammonium sulfate).
In series [5] the target is B1. The description is as above. The conditions noted are these: both partners purified.
Series [6] concerns the target B2. The series is described as above. The conditions noted are these: both partners purified.
Series [7] addresses B3. The series is described as follows: NMR titration; 19F NMR of BeF3−-RR468, HK853^DHp or mutants added at a concentration 10-fold higher than BeF3−-RR468; pH 7.0; 20 mM HEPES, 50 mM KCl, 10 mM MgCl2; 298 K. To be noted: both partners purified.

With `Nc1ncnc2c1ncn2[C@@H]1O[C@H](COP(=O)(O)OP(=O)(O)O)[C@@H](O)[C@H]1O` [ADP], the “X-ray crystal structure, 2.68 A” value in series [1] was “The AMPPNP is captured in the hydrolyzed form of ADP”. In the case of `[F][Be-]([F])[F]` [BeF3 ^−], in series [2], the “X-ray crystal structure, 2.68 A” value was “reveals a heterotetrameric complex consisting of two HK853^cp and two BeF3 ^−-RR468”. Moreover, the “19F NMR” value is recorded as “indicating the formation of the HK853^DHp-BeF3 ^−-RR468 complex” in series [3] and “we were able to detect three broad fluorine signals from the protein-bound BeF3 ^−” on RR468. For the molecule B1, the binding result in series [4] is listed as “binds”. As to B2, the binding result in series [4] was “binds”. Consider B3, for which the binding result in series [5] and in series [6] was “binds” each time. On to B4, for which the binding result in series [7] is listed as “binds”. Turning to B5, in series [7], the binding result is given as “binds”.

For B6, in series [7], the binding result is listed as “binds”.
